These results are taken from publication PMC3936744 (Nucleic Acids Research, 2013).

Data set [1] addresses T1, Dpo4 (Sulfolobus solfataricus P2 DNA polymerase IV) (Saccharolobus solfataricus, UniProt Q97W02).
T1 sequence (Q97W02 1-352): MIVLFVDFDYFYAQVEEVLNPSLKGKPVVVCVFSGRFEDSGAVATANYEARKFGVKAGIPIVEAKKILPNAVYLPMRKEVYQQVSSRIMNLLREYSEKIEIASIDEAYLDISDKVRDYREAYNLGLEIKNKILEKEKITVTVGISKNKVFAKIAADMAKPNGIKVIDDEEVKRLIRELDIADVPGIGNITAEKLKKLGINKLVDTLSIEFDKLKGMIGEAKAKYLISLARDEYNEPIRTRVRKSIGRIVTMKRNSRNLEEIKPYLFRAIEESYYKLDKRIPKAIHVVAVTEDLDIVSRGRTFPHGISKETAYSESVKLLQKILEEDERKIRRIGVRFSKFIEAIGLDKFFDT
Nature of the data set: smFRET histogram shift and dissociation rate of the Dpo4-DNA complex. In kind it is binding. Particulars: 1 mM; incorrect nucleotide; 8Cy3 primer-template; Ca2+, pH 7.5, 21 °C.

The target of data set [2] is T2, Dpo4 (P2 DNA polymerase IV), wild type, Cy5-labeled (Sulfolobus solfataricus P2, UniProt Q97W02 1-352).
T2 sequence: T1 sequence (Q97W02 1-352)
Nature of the data set: smFRET.

Data set [3] concerns the target T2, Dpo4 (P2 DNA polymerase IV), wild type, …. Nature of the data set: smFRET. The source holds these as a separate data set.
For data set [4] the target is unchanged. Nature of the data set: smFRET. This is another data set of the same source.

Where two headings read alike, the source gives them in different places.

Regarding `Nc1ccn([C@H]2C[C@H](O)[C@@H](COP(=O)(O)OP(=O)(O)OP(=O)(O)O)O2)c(=O)n1` [dCTP], the “smFRET histogram shift and dissociation rate of the Dpo4-DNA complex” value in data set [1] is “both dCTP and dTTP induced a low FRET shift identical to that observed”.

B1: 11Cy3 primer-template (dsDNA)
DNA 1: GATGAAAATGAAGGAT
DNA 2: CTCATAATAGCTATCCTTCATTTTCATC
modifications: amino-C6-dT in template
On to B1, for which, in data set [2], the binding result is “binds”.

B2: 7Cy3 primer-template (dsDNA)
DNA 1: GATGAAAATGAA
DNA 2: CTCATAATAGCTATCCTTCATTTTCATC
modifications: amino-C6-dT in template
Consider B2, for which the binding result in data set [2] was “binds”.

B3: 10Cy3 primer-template (dsDNA)
DNA 1: GATGAAAATGAAGGA
DNA 2: CTCATAATAGCTATCCTTCATTTTCATC
modifications: amino-C6-dT in template
Turning to B3, in data set [2], the binding result is on record as “binds”.

B4: 9Cy3 primer-template (dsDNA)
DNA 1: GATGAAAATGAAGG
DNA 2: CTCATAATAGCTATCCTTCATTTTCATC
modifications: amino-C6-dT in template
For the molecule B4, in data set [3], the binding result is recorded as “binds”.

B5: 12Cy3 primer-template (dsDNA)
DNA 1: GATGAAAATGAAGGATA
DNA 2: CTCATAATAGCTATCCTTCATTTTCATC
modifications: amino-C6-dT in template
Turning to B5, the binding result in data set [2] is recorded as “binds”.

B6: 8Cy3 primer-template (dsDNA)
DNA 1: GATGAAAATGAAG
DNA 2: CTCATAATAGCTATCCTTCATTTTCATC
modifications: amino-C6-dT in template
The term Kd denotes a measure of binding affinity in units of concentration. Low values mean a tighter complex, high ones a looser complex. Regarding B6, in data set [4], the equilibrium dissociation constant (Kd) is 30 ± 10 nM.
